Data on 51 substances can be found in patent publication US20210238260A1.

The target in test [1] is antithrombin III (plasma purified human AT-III), in complex with unfractionated heparin (human) (UniProt P01008). Briefly: AT-III/UFH inhibition of FIXa; residual activity on Pefafluor FIXa substrate, varied incubation time.
Test [2] has as its target plasma purified human antithrombin III (AT-III), in complex with unfractionated heparin (UFH) (human) (UniProt P01008). The test can be described thus: inhibition of FIXa by AT-III/UFH, residual activity on Mesyl-D-CHG-Gly-Arg-AMC, pseudo-first-order.
Test [3] addresses antithrombin III (AT-III), plasma purified human, in complex with unfractionated heparin (UFH) (human) (UniProt P01008). The test can be described thus: inhibition of FIXa by AT-III/UFH, pseudo-first-order, residual activity on Mesyl-D-CHG-Gly-Arg-AMC.

As to “FIXa A103N/N105S/K247N/N249S/R318Y/R338E/R403E/E410N (from UniProt P00740 47-191; P00740 227-461) (enzyme)”, the kapp (apparent second-order rate constant for inhibition) in test [1] came to 1700 M⁻¹ s⁻¹.

For the substance “FIXa A103N/N105S/R318Y/R338E/R403E/E410N (from UniProt P00740 47-191; P00740 227-461) (enzyme)”, in test [1], the kapp (apparent second-order rate constant for inhibition) was determined as 2600 M⁻¹ s⁻¹.

In the case of “FIXa D85N/K228N/R318Y/R338E/R403E/E410N (from UniProt P00740 47-191; P00740 227-461) (enzyme)”, the kapp (apparent second-order rate constant for inhibition) in test [1] amounted to 3000 M⁻¹ s⁻¹.

Consider “FIXa D104N/K106S/I251S/R318Y/R338E/R403E/E410N (from UniProt P00740 47-191; P00740 227-461) (enzyme)”, for which the kapp (apparent second-order rate constant for inhibition) in test [1] amounted to 5700 M⁻¹ s⁻¹.

Regarding “FIXa D104N/K106S/R318Y/R338E/R403E/E410N (from UniProt P00740 47-191; P00740 227-461) (enzyme)”, the kapp (apparent second-order rate constant for inhibition) in test [1] is 3900 M⁻¹ s⁻¹.

Consider “FIXa D104N/K106S/Y155F/K247N/N249S/R318Y/R338E/R403E/E410N (from UniProt P00740 47-191; P00740 227-461) (enzyme)”, for which the kapp (apparent second-order rate constant for inhibition) in test [1] was 1000 M⁻¹ s⁻¹.

For the substance “FIXa D104N/K106S/Y155F/R318Y/R338E/R403E/E410N (from UniProt P00740 47-191; P00740 227-461) (enzyme)”, the kapp (apparent second-order rate constant for inhibition) in test [1] turned out to be 2900 M⁻¹ s⁻¹.

For “FIXa D203N/F205T/R318Y/E410N (from UniProt P00740 47-191; P00740 227-461) (enzyme)”, the kapp (apparent second-order rate constant for inhibition) in test [1] stood at 53000 M⁻¹ s⁻¹.

“FIXa I251S/R318Y/R338E/E410N (from UniProt P00740 47-191; P00740 227-461) (enzyme)”: the kapp (apparent second-order rate constant for inhibition) in test [1] stood at 240000 M⁻¹ s⁻¹.

Consider “FIXa I251S/R318Y/R338E/R403E/E410N (from UniProt P00740 47-191; P00740 227-461) (enzyme)”, for which, in test [1], the kapp (apparent second-order rate constant for inhibition) is 3000 M⁻¹ s⁻¹.

For the substance “FIXa K228N/R318Y/E410N (from UniProt P00740 47-191; P00740 227-461) (enzyme)”, the kapp (apparent second-order rate constant for inhibition) in test [1] worked out at 1.9e+06 M⁻¹ s⁻¹.

For “FIXa K228N/R318Y/R338E/R403E/E410N (from UniProt P00740 47-191; P00740 227-461) (enzyme)”, the kapp (apparent second-order rate constant for inhibition) in test [1] was 2900 M⁻¹ s⁻¹.

Regarding “FIXa K247N/N249S/R318Y/R338E/E410N (from UniProt P00740 47-191; P00740 227-461) (enzyme)”, in test [1], the kapp (apparent second-order rate constant for inhibition) was found to be 860000 M⁻¹ s⁻¹.

On to “FIXa K247N/N249S/R318Y/R338E/R403E/E410N (from UniProt P00740 47-191; P00740 227-461) (enzyme)”, for which, in test [1], the kapp (apparent second-order rate constant for inhibition) came to 2000 M⁻¹ s⁻¹.

For the substance “FIXa N346Y (from UniProt P00740 47-191; P00740 227-461) (enzyme)”, in test [1], the kapp (apparent second-order rate constant for inhibition) was found to be 840000 M⁻¹ s⁻¹.

In the case of “FIXa R318Y/R338E (from UniProt P00740 47-191; P00740 227-461) (enzyme)”, the kapp (apparent second-order rate constant for inhibition) in test [1] worked out at 620000 M⁻¹ s⁻¹.

On to “FIXa R318Y/R338E/R403E/E410S (from UniProt P00740 47-191; P00740 227-461) (enzyme)”, for which the kapp (apparent second-order rate constant for inhibition) in test [1] turned out to be 1600 M⁻¹ s⁻¹.

Take “FIXa R318Y/R403E/E410N (from UniProt P00740 47-191; P00740 227-461) (enzyme)”: the kapp (apparent second-order rate constant for inhibition) in test [1] is 28000 M⁻¹ s⁻¹.

For “FIXa T343Q (from UniProt P00740 47-191; P00740 227-461) (enzyme)”, in test [1], the kapp (apparent second-order rate constant for inhibition) is 2.1e+06 M⁻¹ s⁻¹.

Consider “FIXa T343R (from UniProt P00740 47-191; P00740 227-461) (enzyme)”, for which the kapp (apparent second-order rate constant for inhibition) in test [1] was determined as 4.2e+06 M⁻¹ s⁻¹.

In the case of “FIXa T343R/Y345T (from UniProt P00740 47-191; P00740 227-461) (enzyme)”, in test [1], the kapp (apparent second-order rate constant for inhibition) was found to be 5e+06 M⁻¹ s⁻¹.

For “FIXa Y155F/K228N/R318Y/R338E/R403E/E410N (from UniProt P00740 47-191; P00740 227-461) (enzyme)”, the kapp (apparent second-order rate constant for inhibition) in test [1] turned out to be 4600 M⁻¹ s⁻¹.

On to “FIXa Y155F/K247N/N249S/R318Y/R338E/E410N (from UniProt P00740 47-191; P00740 227-461) (enzyme)”, for which the kapp (apparent second-order rate constant for inhibition) in test [1] turned out to be 180000 M⁻¹ s⁻¹.

For the substance “FIXa Y155F/K247N/N249S/R318Y/R338E/R403E/E410N (from UniProt P00740 47-191; P00740 227-461) (enzyme)”, the kapp (apparent second-order rate constant for inhibition) in test [1] was 1600 M⁻¹ s⁻¹.

As for “FIXa Y155F/N346D (from UniProt P00740 47-191; P00740 227-461) (enzyme)”, the kapp (apparent second-order rate constant for inhibition) in test [1] was found to be 4e+06 M⁻¹ s⁻¹.

For the substance “FIXa Y155F/R318Y/R338E/E410N (from UniProt P00740 47-191; P00740 227-461) (enzyme)”, in test [1], the kapp (apparent second-order rate constant for inhibition) stood at 450000 M⁻¹ s⁻¹.

Consider “FIXa Y155F/R318Y/R403E/E410N (from UniProt P00740 47-191; P00740 227-461) (enzyme)”, for which the kapp (apparent second-order rate constant for inhibition) in test [1] was 8100 M⁻¹ s⁻¹.

Turning to “FIXa Y345T (from UniProt P00740 47-191; P00740 227-461) (enzyme)”, the kapp (apparent second-order rate constant for inhibition) in test [1] was determined as 1.8e+06 M⁻¹ s⁻¹.

Consider “FIXa-K228N/K247N/N249S/R318Y/R338E/T343R/E410N (from UniProt P00740 47-191; P00740 227-461) (enzyme)”, for which the kapp (apparent second-order rate constant for inhibition) in test [2] was found to be 630000 M⁻¹ s⁻¹.

With “FIXa-K228N/K247N/N249S/R318Y/R338E/T343R/R403E (from UniProt P00740 47-191; P00740 227-461) (enzyme)”, in test [2], the kapp (apparent second-order rate constant for inhibition) was 1000 M⁻¹ s⁻¹.

For “FIXa-K228N/K247N/N249S/R318Y/T343R/R403E/E410N (from UniProt P00740 47-191; P00740 227-461) (enzyme)”, the kapp (apparent second-order rate constant for inhibition) in test [2] was found to be 17000 M⁻¹ s⁻¹.

As for “FIXa-K228N/R318Y/R338E/T343R/R403E/E410N (from UniProt P00740 47-191; P00740 227-461) (enzyme)”, in test [2], the kapp (apparent second-order rate constant for inhibition) stood at 7100 M⁻¹ s⁻¹.

In the case of “FIXa-K247N/N249S/R318Y/R338E/T343R (from UniProt P00740 47-191; P00740 227-461) (enzyme)”, in test [2], the kapp (apparent second-order rate constant for inhibition) was 320000 M⁻¹ s⁻¹.

With “FIXa-K247N/N249S/R318Y/R338E/T343R/E410N (from UniProt P00740 47-191; P00740 227-461) (enzyme)”, in test [2], the kapp (apparent second-order rate constant for inhibition) stood at 210000 M⁻¹ s⁻¹.

In the case of “FIXa-K247N/N249S/R318Y/T343R/E410N (from UniProt P00740 47-191; P00740 227-461) (enzyme)”, the kapp (apparent second-order rate constant for inhibition) in test [2] was 49000 M⁻¹ s⁻¹.

On to “FIXa-K247N/N249S/R318Y/T343R/R403E (from UniProt P00740 47-191; P00740 227-461) (enzyme)”, for which, in test [2], the kapp (apparent second-order rate constant for inhibition) is 9800 M⁻¹ s⁻¹.

Regarding “FIXa-K247N/N249S/R318Y/T343R/R403E/E410N (from UniProt P00740 47-191; P00740 227-461) (enzyme)”, in test [2], the kapp (apparent second-order rate constant for inhibition) was 25000 M⁻¹ s⁻¹.

Consider “FIXa-K247N/N249S/R338E/T343R/E410N (from UniProt P00740 47-191; P00740 227-461) (enzyme)”, for which the kapp (apparent second-order rate constant for inhibition) in test [2] was found to be 1.4e+07 M⁻¹ s⁻¹.

As to “FIXa-K247N/N249S/R338E/T343R/R403E (from UniProt P00740 47-191; P00740 227-461) (enzyme)”, the kapp (apparent second-order rate constant for inhibition) in test [2] turned out to be 50000 M⁻¹ s⁻¹.

In the case of “FIXa-R318Y/R338E/T343R (from UniProt P00740 47-191; P00740 227-461) (enzyme)”, in test [2], the kapp (apparent second-order rate constant for inhibition) stood at 1.8e+06 M⁻¹ s⁻¹.

As for “FIXa-R318Y/T343R/E410N (from UniProt P00740 47-191; P00740 227-461) (enzyme)”, the kapp (apparent second-order rate constant for inhibition) in test [2] came to 1.2e+06 M⁻¹ s⁻¹.

“FIXa-R338E/T343R/E410N (from UniProt P00740 47-191; P00740 227-461) (enzyme)”: in test [2], the kapp (apparent second-order rate constant for inhibition) turned out to be 2e+07 M⁻¹ s⁻¹.

“FIXa-Y155F/K247N/N249S/R318Y/R338E/T343R (from UniProt P00740 47-191; P00740 227-461) (enzyme)”: the kapp (apparent second-order rate constant for inhibition) in test [2] is 370000 M⁻¹ s⁻¹.

As to “FIXa-Y155F/K247N/N249S/R318Y/T343R/E410N (from UniProt P00740 47-191; P00740 227-461) (enzyme)”, the kapp (apparent second-order rate constant for inhibition) in test [2] amounted to 360000 M⁻¹ s⁻¹.

As for “FIXa-Y155F/K247N/N249S/R318Y/T343R/R403E (from UniProt P00740 47-191; P00740 227-461) (enzyme)”, the kapp (apparent second-order rate constant for inhibition) in test [2] is 12000 M⁻¹ s⁻¹.

Substance “FIXa-Y155F/R318Y/R338E/T343R/E410N (from UniProt P00740 47-191; P00740 227-461) (enzyme)” had a kapp (second-order rate constant for inhibition) in test [3] of 780000 M⁻¹ s⁻¹.

In test [3], “FIXa-Y155F/R318Y/R338E/T343R/R403E (from UniProt P00740 47-191; P00740 227-461) (enzyme)” showed a kapp (second-order rate constant for inhibition) of 2800 M⁻¹ s⁻¹.

For “FIXa-Y155F/R318Y/T343R/R403E/E410N (from UniProt P00740 47-191; P00740 227-461) (enzyme)”, the kapp (second-order rate constant for inhibition) in test [3] was 55000 M⁻¹ s⁻¹.

In test [3], “FIXa-Y155F/R338E/T343R/R403E (from UniProt P00740 47-191; P00740 227-461) (enzyme)” returned a kapp (second-order rate constant for inhibition) of 93000 M⁻¹ s⁻¹.

In the case of “FIXa-Y155F/R338E/T343R/R403E/E410N (from UniProt P00740 47-191; P00740 227-461) (enzyme)”, in test [3], the kapp (second-order rate constant for inhibition) came out at 280000 M⁻¹ s⁻¹.

Consider “FIXa-Y155F/R338E/T343R/R403E/E410S (from UniProt P00740 47-191; P00740 227-461) (enzyme)”, for which the kapp (second-order rate constant for inhibition) in test [3] was 220000 M⁻¹ s⁻¹.
